Test results published in US20170240645A1 (Genentech, published 2017).

Legend:
[1] = target: T1, cynomolgus monkey PMEL17 with an N-terminal gD tag (cynomolgus monkey, UniProt P40967 25-661 (human entry)); assay: FACS, 293S cells stably transfected with gD tagged PMEL17, 10 µg/ml 17A9
T1 construct: On stably transfected 293S cells; also called N-terminal gD tagged PMEL17 (cynomolgus monkey)
T1 chain: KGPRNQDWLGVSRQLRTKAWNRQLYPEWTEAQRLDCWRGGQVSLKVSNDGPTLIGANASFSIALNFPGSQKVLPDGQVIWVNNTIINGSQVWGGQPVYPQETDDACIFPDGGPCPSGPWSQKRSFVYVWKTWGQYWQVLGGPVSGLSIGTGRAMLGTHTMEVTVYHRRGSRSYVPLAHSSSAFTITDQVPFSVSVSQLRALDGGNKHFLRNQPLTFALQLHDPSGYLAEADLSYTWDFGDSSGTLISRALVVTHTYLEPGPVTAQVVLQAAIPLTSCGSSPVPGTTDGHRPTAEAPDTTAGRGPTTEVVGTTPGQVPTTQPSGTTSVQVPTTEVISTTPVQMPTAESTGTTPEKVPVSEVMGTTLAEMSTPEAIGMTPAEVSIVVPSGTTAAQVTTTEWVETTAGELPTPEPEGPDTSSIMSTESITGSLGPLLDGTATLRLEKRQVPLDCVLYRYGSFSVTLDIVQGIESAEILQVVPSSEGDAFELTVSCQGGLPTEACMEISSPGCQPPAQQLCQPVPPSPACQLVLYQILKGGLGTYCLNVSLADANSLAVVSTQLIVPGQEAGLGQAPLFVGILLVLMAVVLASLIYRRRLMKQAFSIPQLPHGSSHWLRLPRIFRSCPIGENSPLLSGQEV
Method: Antibody 17A9 was tested to determine if it cross-reacts with PMEL17 from species other than human. […] All of the sequences include the signal sequence except for the cynomolgus monkey PMEL17. Residues that are identical among all four species are indicated by asterisks (*). In the region where the rat sequence has a deletion, residues that are identical among the remaining three species are indicated by a plus (+). Binding to each species of PMEL17 was determined by FACS analysis using 293S cells stably transfected with an N-terminal gD tagged PMEL17 (human, cynomolgus monkey, rat, or mouse PMEL17); stained with 10 μg/ml 17A9 antibody; and detected with R-Phycoerythrin conjugated goat anti-mouse antibody.

[2] = target: T2, PMEL17 25-85 with an N-terminal gD tag and a C-terminal GPI anchor (human, UniProt P40967 25-85, C-terminal GPI anchor); assay: FACS on transiently transfected 293 cells
T2 construct: C-terminal deletion, transiently expressed on 293 cells
T2 sequence: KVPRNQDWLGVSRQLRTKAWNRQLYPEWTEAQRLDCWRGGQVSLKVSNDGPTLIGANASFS
Description: (§1) In addition, C-terminal deletions with an N-terminal gD tag and a C-terminal GPI anchor were transiently transfected into 293 cells and analyzed for antibody binding by FACS. The C-terminal deletions tested included PMEL172₅₋₁₂₅, PMEL17₂₅₋₁₀₅, PMEL17₂₅₋₈₅, PMEL17₂₅₋₆₅, and PMEL17₂₅₋₄₅.

[3] = target: T3, PMEL17 25-125 with an N-terminal gD tag and a C-terminal GPI anchor (human, UniProt P40967 25-125, C-terminal GPI anchor); assay: FACS on transiently transfected 293 cells
T3 construct: C-terminal deletion, transiently expressed on 293 cells
T3 sequence: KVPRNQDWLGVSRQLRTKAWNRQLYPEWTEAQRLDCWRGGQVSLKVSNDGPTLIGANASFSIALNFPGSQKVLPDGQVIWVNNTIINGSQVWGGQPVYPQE
Description: as §1

[4] = target: T4, PMEL17 25-105 with an N-terminal gD tag and a C-terminal GPI anchor (human, UniProt P40967 25-105, C-terminal GPI anchor); assay: FACS on transiently transfected 293 cells
T4 construct: C-terminal deletion, transiently expressed on 293 cells
T4 sequence: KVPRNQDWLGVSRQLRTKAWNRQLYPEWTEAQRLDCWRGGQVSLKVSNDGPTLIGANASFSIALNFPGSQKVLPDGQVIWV
Description: as §1

[5] = target: T5, PMEL17 25-65 with an N-terminal gD tag and a C-terminal GPI anchor (human, UniProt P40967 25-65, not fully specified; C-terminal GPI anchor); assay: FACS on transiently transfected 293 cells
T5 construct: C-terminal deletion, transiently expressed on 293 cells
T5 chain: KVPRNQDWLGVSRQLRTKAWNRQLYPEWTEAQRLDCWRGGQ
Description: as §1

human PMEL17 = target: T6, human PMEL17 (human, UniProt P40967 25-661); assay: FACS on live cells, hybridoma supernatant
T6 construct: Untagged PMEL17 as it occurs on melanoma cell lines, normal human melanocytes, PC3 cells stably expressing PMEL17 cDNA, and in human tissue sections; also called Melanocyte protein PMEL17
T6 sequence: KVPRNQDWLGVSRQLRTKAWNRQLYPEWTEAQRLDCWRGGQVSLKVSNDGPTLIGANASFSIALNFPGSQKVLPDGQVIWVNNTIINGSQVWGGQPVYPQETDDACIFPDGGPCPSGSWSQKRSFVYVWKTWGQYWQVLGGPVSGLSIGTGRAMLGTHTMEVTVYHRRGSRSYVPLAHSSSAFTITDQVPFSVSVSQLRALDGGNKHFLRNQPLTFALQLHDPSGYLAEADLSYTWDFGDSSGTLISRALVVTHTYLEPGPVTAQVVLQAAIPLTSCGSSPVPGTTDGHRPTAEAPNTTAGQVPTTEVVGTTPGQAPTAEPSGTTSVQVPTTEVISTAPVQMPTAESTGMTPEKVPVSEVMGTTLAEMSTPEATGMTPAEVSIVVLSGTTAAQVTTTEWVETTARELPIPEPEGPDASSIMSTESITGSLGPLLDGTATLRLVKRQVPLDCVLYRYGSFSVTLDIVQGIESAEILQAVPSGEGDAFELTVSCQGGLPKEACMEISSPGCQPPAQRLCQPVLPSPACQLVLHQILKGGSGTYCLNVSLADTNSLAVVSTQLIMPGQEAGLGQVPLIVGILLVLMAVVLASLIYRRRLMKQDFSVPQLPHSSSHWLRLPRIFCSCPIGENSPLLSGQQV
Description: After 10-14 days, the supernatants were harvested and screened by ELISA and FACS. For FACS analysis, melanoma cell lines SK-MEL-23 (provided by Paul Robbins, Center for Cancer Research, Tumor Immunology Section), 1300mel (provided by Paul Robbins, Center for Cancer Research, Tumor Immunology Section), SKMELS (ATCC HTB-70), and UACC257 (National Cancer Institute), normal melanocytes (Invitrogen, Carlsbad, Calif.), and the prostate cancer cell line PC3 stably expressing human PMEL17 were contacted with antibody. One antibody from the PMEL17-immunized mice, designated 17A9, reacted strongly by fluorescent activated cell sorting (FACS) with live melanoma cells, normal human melanocytes and a PC3 cell line stably expressing PMEL17 cDNA, but not the parental PC3 cell line. Another antibody, 77E6, obtained from the DNA-immunized mice, was also positive by FACS, although 77E6 reacted with live cell lines expressing PMEL17 somewhat inconsistently and more weakly than 17A9.

binding result [1]: binds
binding result [2]: no binding
binding result [3]: binds
binding result [4]: no binding
binding result [5]: no binding
binding result (human PMEL17): binds
B1: 17A9 (antibody, V domains shown)
VH: EVQLQQSGPELVKPGASMKISCKSSGYSFTRYTMNWVKQSHGKNLEWIGVINPYNGGTVYNQKFKGKATLTVDKSSSTAYMELLSLTSEDSAVYYCARTDYDGYAMDYWGQGTSVTVSS
VL: DVQITQSPSYLAASPGETITINCRATKSISKYLAWYQEQPGKTNNLLIYSGSTLQSGIPSRFSGSGSGTDFTLTISSLEPEDFAMYYCQQHNEYPYTFGSGTKLEIK
notes: Mouse monoclonal antibody from a hybridoma (mice immunized with PMEL17 ECD-Fc); also called anti-PMEL17 antibody 17A9
